Experimental data reported in patent publication US20210371461.

Target: T1, MePEG2-IEGR (TFA salt)
T1 chain: IEGR

B1: plasmin (protein)
chain: KVYLSECKTGNGKNYRGTMSKTKNGITCQKWSSTSPHRPRFSPATHPSEGLEENYCRNPDNDPQGPWCYTTDPEKRYDYCDILECEEECMHCSGENYDGKISKTMSGLECQAWDSQSPHAHGYIPSKFPNKNLKKNYCRNPDRELRPWCFTTDPNKRWELCDIPRCTTPPPSSGPTYQCLKGTGENYRGNVAVTVSGHTCQHWSAQTPHTHNRTPENFPCKNLDENYCRNPDGKRAPWCHTTNSQVRWEYCKIPSCDSSPVSTEQLAPTAPPELTPVVQDCYHGDGQSYRGTSSTTTTGKKCQSWSSMTPHRHQKTPENYPNAGLTMNYCRNPDADKGPWCFTTDPSVRWEYCNLKKCSGTEASVVAPPPVVLLPDVETPSEEDCMFGNGKGYRGKRATTVTGTPCQDWAAQEPHRHSIFTPETNPRAGLEKNYCRNPDGDVGGPWCYTTNPRKLYDYCDVPQCAAPSFDCGKPQVEPKKCPGRVVGGCVAHPHSWPWQVSLRTRFGMHFCGGTLISPEWVLTAAHCLEKSPRPSSYKVILGAHQEVNLEPHVQEIEVSRLFLEPTRKDIALLKLSSPAVITDKVIPACLPSPNYVVADRTECFITGWGETQGTFGAGLLKEAQLPVIENKVCNRYEFLNGRVQSTELCAGHLAGGTDSCQGDSGGPLVCFEKDKYILQGVTSWGLGCARPNKPGVYVRVSRFVTWIEGVMRNN
In the case of B1, the “luminescence signal (RLU) from substrate cleavage, 8 nM enzyme” value is reported as 8 nM plasmin yielded ˜8.000 RLU.

B2: tissue-type plasminogen activator (protein)
chain: SYQVICRDEKTQMIYQQHQSWLRPVLRSNRVEYCWCNSGRAQCHSVPVKSCSEPRCFNGGTCQQALYFSDFVCQCPEGFAGKCCEIDTRATCYEDQGISYRGTWSTAESGAECTNWNSSALAQKPYSGRRPDAIRLGLGNHNYCRNPDRDSKPWCYVFKAGKYSSEFCSTPACSEGNSDCYFGNGSAYRGTHSLTESGASCLPWNSMILIGKVYTAQNPSAQALGLGKHNYCRNPDGDAKPWCHVLKNRRLTWEYCDVPSCSTCGLRQYSQPQFRIKGGLFADIASHPWQAAIFAKHRRSPGERFLCGGILISSCWILSAAHCFQERFPPHHLTVILGRTYRVVPGEEEQKFEVEKYIVHKEFDDDTYDNDIALLQLKSDSSRCAQESSVVRTVCLPPADLQLPDWTECELSGYGKHEALSPFYSERLKEAHVRLYPSSRCTSQHLLNRTVTDNMLCAGDTRSGGPQANLHDACQGDSGGPLVCLNDGRMTLVGIISWGLGCGQKDVPGVYTKVTNYLDWIRDNMRP
With B2 the “luminescence signal (RLU) from substrate cleavage, 193 IU/mL enzyme” value was 193 IU/mL tPA yielded ˜6.000 RLU.

B3: factor XIIa (protein)
chain: IPPWEAPKEHKYKAEEHTVVLTVTGEPCHFPFQYHRQLYHKCTHKGRPGPQPWCATTPNFDQDQRWGYCLEPKKVKDHCSKHSPCQKGGTCVNMPSGPHCLCPQHLTGNHCQKEKCFEPQLLRFFHKNEIWYRTEQAAVARCQCKGPDAHCQRLASQACRTNPCLHGGRCLEVEGHRLCHCPVGYTGAFCDVDTKASCYDGRGLSYRGLARTTLSGAPCQPWASEATYRNVTAEQARNWGLGGHAFCRNPDNDIRPWCFVLNRDRLSWEYCDLAQCQTPTQAAPPTPVSPRLHVPLMPAQPAPPKPQPTTRTPPQSQTPGALPAKREQPPSLTRNGPLSCGQRLRKSLSSMTRVVGGLVALRGAHPYIAALYWGHSFCAGSLIAPCWVLTAAHCLQDRPAPEDLTVVLGQERRNHSCEPCQTLAVRSYRLHEAFSPVSYQHDLALLRLQEDADGSCALLSPYVQPVCLPSGAARPSETTLCQVAGWGHQFEGAEEYASFLQEAQVPFLSLERCSAPDVHGSSILPGMLCAGFLEGGTDACQGDSGGPLVCEDQAAERRLTLQGIISWGSGCGDRNKPGVYTDVAYYLAWIREHTVS
In the case of B3, the “luminescence signal (RLU) from substrate cleavage, 145 nM enzyme” value is reported as 145 nM FXlla yielded ˜500 RLU.
